Patent US20170189519A1 (Janssen / Centocor, published 2017)

Assays:
146G7 [1] = target: T1, 146G7 (influenza A H1N1 A/Brisbane/59/2007); assay: ratio against parental SEQ ID NO: 6
262B9 [2] = target: T2, 262B9 (influenza A H1N1 A/Brisbane/59/2007); assay: ratio against parental SEQ ID NO: 6
189E10 [3] = target: T3, 189E10 (influenza A H1N1 A/Brisbane/59/2007); assay: ratio against parental SEQ ID NO: 6
146G7 [4] = target: T1, 146G7; assay: ELISA signal over HTRF expression signal
262B9 [5] = target: T2, 262B9; assay: ELISA signal over HTRF expression signal
189E10 [6] = target: T3, 189E10; assay: ELISA signal over HTRF expression signal
146G7 [7] = target: T1, 146G7; assay: ELISA, coated CR6261, P. pastoris medium
262B9 [8] = target: T2, 262B9; assay: ELISA, coated CR6261, P. pastoris medium
189E10 [9] = target: T3, 189E10; assay: ELISA, coated CR6261, P. pastoris medium
s127H1-t2-cl18long = s127H1-t2-cl18long (influenza A virus H1N1 …, UniProt A8C8J4 18-529)

B1: CR6261 (antibody, V domains shown)
VH: EVQLVESGAEVKKPGSSVKVSCKASGGPFRSYAISWVRQAPGQGPEWMGGIIPIFGTTKYAPKFQGRVTITADDFAGTVYMELSSLRSEDTAMYYCAKHMGYQVRETMDVWGKGTTVTVSS
VL: QSVLTQPPSVSAAPGQKVTISCSGSSSNIGNDYVSWYQQLPGTAPKLLIYDNNKRPSGIPDRFSGSKSGTSATLGITGLQTGDEANYYCATWDRRPTAYVVFGGGTKLTVLG
146G7 [1]
  fold increase of ratio over parental H1 mini-HA: 1.71
262B9 [2]
  fold increase of ratio over parental H1 mini-HA: 1.66
189E10 [3]
  fold increase of ratio over parental H1 mini-HA: 1.74
146G7 [4]
  ratio of CR6261 binding signal to HTRF signal: 10.2
262B9 [5]
  ratio of CR6261 binding signal to HTRF signal: 9.89
189E10 [6]
  ratio of CR6261 binding signal to HTRF signal: 10.3
146G7 [7]
  CR6261 binding signal: 534000
262B9 [8]
  CR6261 binding signal: 94700
189E10 [9]
  CR6261 binding signal: 189000

B2: CR6261 (antibody, V domains shown)
VH: B1 VH
VL: B1 VL
s127H1-t2-cl18long
  EC50: 0.139 µg/mL
